What all share (assay): ELISA, receptor coated at 2 ug/ml, streptavidin-HRP, A405
For orientation: In an ELISA, binding on a coated surface is turned into a signal by an enzyme label.

The target in assay [1] is T1, rhIL-17RD (Sef) (human, UniProt Q8NFM7 27-299, limits assumed).
T1 construct: Bought from R&D Systems, catalog 2275-IL; also called human IL-17RD; IL-17D receptor
T1 sequence (looked up): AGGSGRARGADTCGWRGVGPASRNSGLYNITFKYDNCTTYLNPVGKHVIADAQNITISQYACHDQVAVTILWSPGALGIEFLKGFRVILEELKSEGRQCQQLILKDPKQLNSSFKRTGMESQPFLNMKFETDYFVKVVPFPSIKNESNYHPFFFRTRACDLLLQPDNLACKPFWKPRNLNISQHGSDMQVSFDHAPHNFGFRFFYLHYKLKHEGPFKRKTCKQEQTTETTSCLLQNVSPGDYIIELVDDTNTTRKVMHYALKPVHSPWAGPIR
The protocol:
(§1) In brief, ELISA plates were coated with IL-17R-family members; IL-17RA, IL-17BR, IL-17RC or IL-17RD, or IL-13Rα control, at 2 μg/ml, incubated overnight at 4° C., washed in PBS/0.05% tween and blocked in PBS/10% FCS at room temperature for 4 hrs. Biotinylated D9.2 binding was detected using streptavidin-HRP and ELISA development solution and measuring absorbance at 405 nm.
(§2) ELISA plates were coated with IL-17R-family members; IL-17RA, IL-17BR, IL-17RC, or IL-17RD, or IL-13Rα control (R&D Systems) at 2 μg/ml overnight at 4° C. before washing in PBS/0.05% tween and blocking in PBS/10% FCS at room temperature for 4 hrs. Biotinylated D9.2 was added at 1 μg/ml in PBS/10% FCS and incubated overnight at 4° C. Plates were then washed before streptavidin-HRP was added and incubated for 1 hr at room temperature. Plates were then washed a final time before adding ELISA development solution and measuring the absorbance at 405 nm.

The target of assay [2] is T2, rmIL-17RC (mouse, UniProt Q8K4C2 22-464, limits assumed).
T2 construct: Bought from R&D Systems, catalog 2270-ML; also called mouse IL-17RC; IL-17C receptor
T2 sequence (looked up): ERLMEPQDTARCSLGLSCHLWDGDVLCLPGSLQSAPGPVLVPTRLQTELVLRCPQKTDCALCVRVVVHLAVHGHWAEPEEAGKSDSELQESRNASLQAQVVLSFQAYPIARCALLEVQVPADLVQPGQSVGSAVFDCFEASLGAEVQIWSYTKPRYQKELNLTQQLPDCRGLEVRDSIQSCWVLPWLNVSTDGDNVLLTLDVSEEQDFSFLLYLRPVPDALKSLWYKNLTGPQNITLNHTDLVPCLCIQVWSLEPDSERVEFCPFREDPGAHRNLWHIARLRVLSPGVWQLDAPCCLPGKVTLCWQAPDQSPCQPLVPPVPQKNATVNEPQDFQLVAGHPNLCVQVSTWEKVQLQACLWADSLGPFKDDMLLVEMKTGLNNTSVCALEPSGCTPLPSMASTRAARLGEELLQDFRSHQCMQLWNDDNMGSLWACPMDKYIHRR
The protocol:
as §1, §2

The target in assay [3] is T3, rmIL-17RD (Sef) (mouse, UniProt Q8JZL1 27-299, limits assumed).
T3 construct: Bought from R&D Systems, catalog 2276-ML; also called mouse IL-17RD; IL-17D receptor
T3 sequence (looked up): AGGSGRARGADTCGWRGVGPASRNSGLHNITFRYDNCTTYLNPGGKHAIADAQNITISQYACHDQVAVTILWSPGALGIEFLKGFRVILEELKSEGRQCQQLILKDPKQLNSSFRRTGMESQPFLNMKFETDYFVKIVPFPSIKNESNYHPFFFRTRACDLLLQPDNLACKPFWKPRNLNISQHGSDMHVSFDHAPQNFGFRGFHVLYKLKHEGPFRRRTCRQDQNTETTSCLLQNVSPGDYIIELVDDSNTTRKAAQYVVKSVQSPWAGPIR
The protocol:
as §1, §2

Assay [4] concerns the target T4, rmIL-17RA-Fc (mouse, UniProt Q60943 32-322).
T4 construct: Bought from R&D Systems, catalog 4481-MR; also called mouse IL-17RA; IL-17A receptor; not shown: Fc portion, not described
T4 sequence (looked up): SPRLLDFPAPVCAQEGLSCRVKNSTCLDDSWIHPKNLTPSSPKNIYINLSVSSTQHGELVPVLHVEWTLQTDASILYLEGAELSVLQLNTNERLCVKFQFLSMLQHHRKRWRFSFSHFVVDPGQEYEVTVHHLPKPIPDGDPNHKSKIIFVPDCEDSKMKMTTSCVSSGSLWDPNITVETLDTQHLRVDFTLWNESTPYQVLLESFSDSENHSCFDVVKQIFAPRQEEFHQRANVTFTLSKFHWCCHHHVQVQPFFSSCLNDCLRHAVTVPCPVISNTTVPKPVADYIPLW
Here is the method: as §1, §2

For assay [5], the target named is T5, rhIL-17RC (human, UniProt Q8NAC3-2 21-467, limits assumed).
T5 construct: Bought from R&D Systems, catalog 2269-IL; also called human IL-17RC; IL-17C receptor
T5 sequence (looked up): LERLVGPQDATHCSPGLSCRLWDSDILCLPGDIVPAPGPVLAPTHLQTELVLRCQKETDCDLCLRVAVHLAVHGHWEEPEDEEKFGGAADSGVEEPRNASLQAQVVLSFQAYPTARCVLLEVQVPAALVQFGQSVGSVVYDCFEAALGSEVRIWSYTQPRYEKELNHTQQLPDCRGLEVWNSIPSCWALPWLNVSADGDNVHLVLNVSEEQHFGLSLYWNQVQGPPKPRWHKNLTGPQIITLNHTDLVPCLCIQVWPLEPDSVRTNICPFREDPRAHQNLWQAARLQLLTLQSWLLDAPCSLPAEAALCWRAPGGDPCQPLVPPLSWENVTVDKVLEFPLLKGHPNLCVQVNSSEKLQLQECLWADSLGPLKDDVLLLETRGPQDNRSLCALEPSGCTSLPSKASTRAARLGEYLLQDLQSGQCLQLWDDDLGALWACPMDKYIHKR
The protocol: as §1, §2

The target in assay [6] is T6, rhIL-17RA-Fc (human, UniProt Q96F46 33-320).
T6 construct: Bought from R&D Systems, catalog 177-IR; also called human IL-17RA; IL-17A receptor; not shown: Fc portion, not described
T6 sequence (looked up): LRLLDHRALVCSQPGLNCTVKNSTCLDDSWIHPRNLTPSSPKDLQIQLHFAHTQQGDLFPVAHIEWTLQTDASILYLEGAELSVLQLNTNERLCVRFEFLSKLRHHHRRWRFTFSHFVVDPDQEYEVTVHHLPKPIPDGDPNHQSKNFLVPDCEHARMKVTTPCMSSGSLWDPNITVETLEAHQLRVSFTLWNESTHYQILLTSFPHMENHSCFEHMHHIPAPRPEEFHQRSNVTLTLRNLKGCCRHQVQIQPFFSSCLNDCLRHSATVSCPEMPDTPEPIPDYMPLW
Here is the method:
as §1, §2

Experimental findings from patent publication US20120020985A1 (MEDICAL RESEARCH COUNCIL, published 2012) are described below.

B1: anti-IL-17BR clone D9.2 (antibody, V domains shown)
VH: QVQLQQPGAELVRPGASVKLSCKTSGYTFISYWMNWVKQGGPEQGLEWIGRIDPYDSEIQYNQKFKDKAILTVDKSSSAAYMQLISLTSEDSAVYYCARSGGFDWFAYWGQGTLVTVS
VL: DIQMTQSPASLSVSVGETVTITCRASENINSNLAWYQQKKGKSPQLLVYDVTNLADGVPSRFSGSGSGTQYSLKINSLQSEDFGSYYCQHFWRPPYTFGGGTNLEIK
notes: Mouse monoclonal from a hybridoma; heavy chain amplified with an IgG1 constant region primer and light chain with a kappa primer (mouse IgG1 kappa); also called mouse monoclonal antibody D9.2; D9.2 antibody clone
Take B1: the binding result in assay [1], in assay [2], in assay [3], in assay [4], in assay [5] and in assay [6] was “no binding (tested: 1 ug/ml biotinylated D9.2)” in each case.
